Experimental data: patent publication US20050238723A1, “Method of producing hydroxyalkyl starch derivatives” (priority 2002, published 2005)

Test system: normocythaemic mouse
Assay: EPO-bioassay in the normocythaemic mouse system (European Pharmacopeia)
Type: in vivo
Description: Quantitative determination of EPO protein was performed by measuring UV absorption at 280 nm according to the Eur. Phar. (European Pharmacopeia 4, Monography January 2002: 1316: erythropoietin concentrated solution) in a cuvette with 1 cm path length. In addition, EPO was quantitated by applying a RP-HPLC method using a RP-C4 column (Vydac Protein C4, Cat.# 214TP5410, Grace Vydac, Calif., US); the HPLC method was calibrated using the erythropoietin BRP 1 reference standard (European Pharmacopeia, Conseil de l'Europe B.P. 907-F67029, Strasbourg Cedex 1).
The EPO-bioassay in the normocythaemic mouse system indicates was performed according to the procedures described in the European Pharmacopeia; the laboratory that carried out the EPO assay was using the International BRP EPO reference standard preparation. For the HES-modified EPO A2 preparation a mean value for the specific activity of 294,600 units per mg EPO of protein was determined indicating an approximately 3-fold higher specific activity when compared to the International BRP EPO reference standard preparation that was included in the samples sent for activity assays.
In vivo activity determinations are performed in normocythemic mice by measuring the increase of reticulocytes after 4 days after animals received the foreseen dose of EPO or modified EPO forms. Assays are performed using the BRP EPO standard which is calibrated against the WHO EPO standard in the polycythemic mouse assay. EPO samples are diluted in phosphate buffered saline containing 1 mg/ml of bovine serum albumin (Sigma).
0.5 ml of the EPO test solution in Dulbecco's buffered saline (corresponding to an EPO protein equivalent of a 100, 80, 40 or 20 IU/ml of the BRP standard EPO) are infected subcutaneously per animal. Blood samples are taken after 4 days after injection and reticulocytes are stained with acridine orange; quantitation of reticulocytes is performed by flow-cytometry by counting a total of 30,000 blood cells within 5 hours after the blood sample was taken (see Ph. Eur, 2000, Erythropoietini solutio concentrata, 1316, pages 780-785) and European Pharmacopoeia (1996/2000, attachment 2002).

[1] = sample diluted with 4 volume of PBS

Row | Substance | Calculated specific activity of EPO sample (basedon A280 nm and RP-HPLC determination) (sample as such) | Calculated specific activity of EPO sample (basedon A280 nm and RP-HPLC determination) [1]
1 | BRP EPO standard: erythropoietin BRP reference standard of the European Pharmacopeia [reference compound] | 86,702 U/mg | 81,200 U/mg
2 | Control EPO K2: control incubation of unmodified EPO-GT-1 with unmodified HES; Q-Sepharose fraction eluted with high salt | 121,410 U/mg | 114,100 U/mg
